Literature values, collected in article PMC4034509, “Overcoming co-product inhibition in the nicotinamide independent asymmetric bioreduction of activated C=C-bonds using flavin-dependent ene-reductases” (Biotechnology and Bioengineering, 2013).

Target: Tyr206 (UniProt position 206, …)
Conditions: Not stated. The value is discussed in the context of the phenol/phenolate charge-transfer complex with the oxidised flavin in the EBP1 active site.

B1: Estrogen binding protein EBP1 (old yellow enzyme homologue) (Candida albicans) (protein)
chain: MTIESTNSFVVPSDTKLIDVTPLGSTKLFQPIKVGNNVLPQRIAYVPTTRFRASKDHIPSDLQLNYYNARSQYPGTLIITEATFASERGGIDLHVPGIYNDAQAKSWKKINEAIHGNGSFSSVQLWYLGRVANAKDLKDSGLPLIAPSAVYWDENSEKLAKEAGNELRALTEEEIDHIVEVEYPNAAKHALEAGFDYVEIHGAHGYLLDQFLNLASNKRTDKYGCGSIENRARLLLRVVDKLIEVVGANRLALRLSPWASFQGMEIEGEEIHSYILQQLQQRADNGQQLAYISLVEPRVTGIYDVSLKDQQGRSNEFAYKIWKGNFIRAGNYTYDAPEFKTLINDLKNDRSIIGFSRFFTSNPDLVEKLKLGKPLNYYNREEFYKYYNYGYNSYDESEKQVIGKPLA
In the case of B1, the pKa is listed as 9.4.
